Test [1] concerns the target T1, human CD33 (human, UniProt P20138 18-364). As to the kind of experiment: cell-based or functional assay.
Test [2] concerns the target T2, mouse CD33 Fc fusion protein (mouse, UniProt Q63994 18-240, limits assumed).
T2 construct: also called mCD33-Fc
T2 sequence: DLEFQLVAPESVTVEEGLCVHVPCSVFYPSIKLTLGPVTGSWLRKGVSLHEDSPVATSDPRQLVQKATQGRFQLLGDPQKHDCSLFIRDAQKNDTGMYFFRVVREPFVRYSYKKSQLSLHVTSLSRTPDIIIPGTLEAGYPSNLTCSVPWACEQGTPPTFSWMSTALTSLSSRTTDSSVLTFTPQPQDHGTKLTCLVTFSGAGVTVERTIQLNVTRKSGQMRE
The test can be described thus: ForteBio BLI or MSD-SET. On the technique in general: In BLI a coated tip is dipped into the sample, and binding shifts an interference pattern.

The target in test [3] is T3, human CD33 Fc fusion protein (human, UniProt P20138 18-259).
T3 construct: also called hCD33-Fc; human CD33/Fc chimera (R&D Systems)
T3 sequence (P20138 18-259 limits assumed): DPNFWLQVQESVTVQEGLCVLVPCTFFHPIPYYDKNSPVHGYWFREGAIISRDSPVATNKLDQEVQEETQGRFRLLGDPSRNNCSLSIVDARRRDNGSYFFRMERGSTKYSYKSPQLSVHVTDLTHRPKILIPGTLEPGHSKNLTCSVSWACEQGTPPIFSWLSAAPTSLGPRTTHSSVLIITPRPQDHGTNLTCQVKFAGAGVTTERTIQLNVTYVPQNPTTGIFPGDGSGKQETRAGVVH
As to the kind of experiment: ForteBio BLI or MSD-SET, IgG, avid.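 Also: Anti-CD33 IgG affinity by BLI, IgG captured on AHQ sensors with antigen in solution and a one-to-one kinetic fit, or by MSD solution equilibrium titration with quadratic fit.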

Test [4] addresses T1, human CD33. As to the kind of experiment: flow cytometry, human primary T cells.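 Also: binding of anti-CD33 antibodies at 10 ug/ml to human primary T cells, 1 h on ice, detected with PE-labelled secondary antibody, read as flow cytometry MFI.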 For orientation: A flow cytometer gives signals particle by particle.
Description: (§1) Initial characterization of CD33 antibodies involved determining their ability to bind CD33 expressed on a CHO cell line, on human primary monocytes, human primary macrophages, human primary dendritic cells, and on human primary T cells. Cells were harvested, plated at 10⁶/ml in a 96 well plate, and incubated in 100 ul PBS containing 2% FBS, 2 mM EDTA and 10 ug/ml Mab and Fc blocking reagent for 1 hour in ice. Cells were washed twice and incubated in 100 ul PBS containing 2% FBS, 2 mM EDTA and 5 ug/ml PE-conjugated secondary antibody for 30 minutes on ice. Cells were washed twice in cold PBS and analyze by flow cytometry on a BD FACS Canto. Data analysis and calculation of MFI values was performed with FlowJo (TreeStar) software version 10.0.7.
Test [5] addresses T1, human CD33. As to the kind of experiment: flow cytometry, human primary monocytes.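 Also: binding of anti-CD33 antibodies at 10 ug/ml to human primary monocytes, 1 h on ice, detected by PE-labelled secondary antibody, flow cytometry readout as mean fluorescence intensity.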 On the set-up: reference not given here.
In test [6] the target is T1, human CD33. The test can be described thus: flow cytometry, human primary macrophages.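 Also: binding of CD33 antibodies at 10 µg/ml to human primary macrophages, 1 h on ice, detected with PE-labelled secondary antibody by flow cytometry, reported as MFI.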
Description: as §1
Test [7] concerns the target T1, human CD33. As to the kind of experiment: flow cytometry, human primary dendritic cells.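 Also: binding of anti-CD33 antibodies (10 ug/ml, 1 h on ice) to human primary dendritic cells, detected with a PE-labelled secondary antibody, reported as flow cytometry MFI.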
Description: as §1
Test [8] addresses T4, human monomeric His tagged CD33 protein (human, UniProt P20138 18-259).
T4 construct: also called hCD33-His
The test can be described thus: ForteBio BLI or MSD-SET, IgG, monomeric antigen.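 Also: BLI: antibodies captured on AHQ sensors, 100 nM antigen association 5 min, dissociation 5 min, 1:1 fit. MSD-SET: antigen fixed at 50 pM, antibody titrated, quadratic fit.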
Description: The binding affinity of each anti-CD33 antibody was determined by measuring their KD by ForteBio or MSD-SET. […] Briefly, ForteBio affinity measurements were performed by loading IgGs on-line onto AHQ sensors. Sensors were equilibrated off-line in assay buffer for 30 min and then monitored on-line for 60 seconds for baseline establishment. Sensors with loaded IgGs were exposed to 100 nM antigen for 5 minutes, then transferred to assay buffer for 5 min for off-rate measurement. Kinetics were analyzed using the 1:1 binding model.
Solution equilibrium titrations (SET) were performed in PBS+0.1% IgG-Free BSA (PBSF) with antigen held constant at 50 pM and incubated with 3-to 5-fold serial dilutions of antibody starting at 10 nM. Antibodies (20 nM in PBS) were coated onto standard bind MSD-ECL plates overnight at 4° C. or at room temperature for 30 min. Plates were then blocked for 30 min with shaking at 700 rpm, followed by three washes with wash buffer (PBSF+0.05% Tween 20). SET samples were applied and incubated on the plates for 150s with shaking at 700 rpm followed by one wash. Antigen captured on a plate was detected with 250 ng/mL sulfotag-labeled streptavidin in PBSF by incubation on the plate for 3 min. The plates were washed three times with wash buffer and then read on the MSD Sector Imager 2400 instrument using 1× Read Buffer T with surfactant. The percent free antigen was plotted as a function of titrated antibody in Prism and fit to a quadratic equation to extract the KD. To improve throughput, liquid handling robots were used throughout MSD-SET experiments, including SET sample preparation.

The target in test [9] is T3, human CD33 Fc fusion protein. As to the kind of experiment: RBC adhesion to plate-bound CD33-Fc; antibody 0.5 ug/ml.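 Also: Plate-coated CD33-Fc preincubated 1 h with antibody, then red blood cells added for 1 h at room temperature, adherent cells lysed and quantified via peroxidase activity.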
For test [10] the target is unchanged. The test can be described thus: RBC adhesion to plate-bound CD33-Fc; antibody 1.0 ug/ml.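 Also: red blood cells adhering to plate-coated CD33-Fc after 1 h antibody pretreatment, then 1 h at room temperature, bound cells read as peroxidase activity after lysis.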

T1 sequence (P20138 18-364): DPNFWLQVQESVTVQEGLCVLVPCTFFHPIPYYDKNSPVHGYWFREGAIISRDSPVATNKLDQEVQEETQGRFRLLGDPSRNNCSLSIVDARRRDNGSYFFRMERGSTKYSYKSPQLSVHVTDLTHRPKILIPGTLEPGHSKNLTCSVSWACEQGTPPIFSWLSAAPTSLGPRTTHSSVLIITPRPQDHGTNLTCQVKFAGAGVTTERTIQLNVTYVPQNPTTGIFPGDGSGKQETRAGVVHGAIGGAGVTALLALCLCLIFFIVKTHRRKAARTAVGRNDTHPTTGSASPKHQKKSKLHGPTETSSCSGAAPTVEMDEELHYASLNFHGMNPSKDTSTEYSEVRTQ
T4 sequence (P20138 18-259 limits assumed): as the sequence (P20138 18-259 limits assumed) above

B1: C-6 (antibody, V domains shown)
VH: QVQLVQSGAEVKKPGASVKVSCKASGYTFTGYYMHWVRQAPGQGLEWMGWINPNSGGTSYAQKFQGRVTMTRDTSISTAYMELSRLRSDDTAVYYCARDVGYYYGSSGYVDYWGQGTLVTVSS
VL: DIQMTQSPSSVSASVGDRVTITCRASQGIDSWLAWYQQKPGKAPKLLIYAASSLQSGVPSRFSGSGSGTDFTLTISSLQPEDFATYYCQQASAHPPWTFGGGTKVEIK
notes: human IgG1
The term Kd denotes the free concentration of one partner at which half of the binding sites on the other are occupied at equilibrium, for simple one-to-one binding. Consider B1, for which, in the test with human CD33 [1], the “Percent CD33 Surface Expression, DC % CD33” value was determined as 83%; the “Percent CD33 Surface Expression, Macrophage % CD33” value worked out at 98.6%; the “Percent CD33 Surface Expression, Monocyte % CD33” value worked out at 91%. The binding result in test [2] is recorded as “no binding (tested: 100 nM)”. The same molecule returned a Kd in test [3] of 2.83 nM. For the same molecule, the “T cell MFI” value in the test with human CD33 [4] worked out at 46. Moreover, the “Monocyte MFI” value with human CD33 [5] came out at 131. Besides, the “Macrophage MFI” value with human CD33 [6] turned out to be 871. In addition, the “DC MFI” value in the test with human CD33 [7] is 1040. The molecule also came in with a Kd in test [8] of 8.94 nM. For the same molecule, the “Percent RBC Binding to CD33” value in test [9] came to 102%. The “Percent RBC Binding to CD33” value in [10] stood at 98.1%.

B2: C-60 (antibody, V domains shown)
VH: QVQLVQSGAEVKKPGASVKVSCKASGYTFTSYYMHWVRQAPGQGLEWMGVINPSGGSTSYAQKFQGRVTMTRDTSTSTVYMELSSLRSEDTAVYYCARESQYYDVHGMDVWGQGTTVTVSS
VL: DIQLTQSPSSLSASVGDRVTITCRASQSISSYLNWYQQKPGKAPKLLIYAASSLQSGVPSRFSGSGSGTDFTLTISSLQPEDFATYYCQQSVHVPITFGGGTKVEIK
notes: human IgG1
On to B2, for which, in the test with human CD33 [1], the “Percent CD33 Surface Expression, DC % CD33” value was 26.8%; the “Percent CD33 Surface Expression, Macrophage % CD33” value is 45.4%; the “Percent CD33 Surface Expression, Monocyte % CD33” value was 41.7%. Also, in [2], the binding result is listed as “no binding (tested: 100 nM)”. This molecule also gave a Kd in test [3] of 1.66 nM. Besides, in the test with human CD33 [4], the “T cell MFI” value came out at 221. In addition, the “Monocyte MFI” value with human CD33 [5] was 151. The “Macrophage MFI” value in the test with human CD33 [6] worked out at 775. In addition, the “DC MFI” value with human CD33 [7] was determined as 1040. Also, the Kd in test [8] is 9.33 nM. In test [9], the “Percent RBC Binding to CD33” value was 10.7%. Besides, the “Percent RBC Binding to CD33” value in test [10] stood at 12.9%.

B3: C-61 (antibody, V domains shown)
VH: QVQLVQSGAEVKKPGASVKVSCKASGYTFTSYYMHWVRQAPGQGLEWMGVINPSGGSTSYAQKFQGRVTMTRDTSTSTVYMELSSLRSEDTAVYYCARESQYYDVHGMDVWGQGTTVTVSS
VL: EIVLTQSPGTLSLSPGERATLSCRASQSVSSSYLAWYQQKPGQAPRLLIYGASSRATGIPDRFSGSGSGTDFTLTISRLEPEDFAVYYCQQYYGLPLTFGGGTKVEIK
notes: human IgG1
For the molecule B3, the “Percent CD33 Surface Expression, DC % CD33” value with human CD33 [1] was determined as 22.8%. Further, in the test with human CD33 [1], the “Percent CD33 Surface Expression, Macrophage % CD33” value was 50.8%. Besides, in the test with human CD33 [1], the “Percent CD33 Surface Expression, Monocyte % CD33” value amounted to 38.3%. For the same molecule, in test [2], the binding result is on record as “no binding (tested: 100 nM)”. In addition, the values for the Kd in test [3] and in test [8] were 2.06 nM and 13.4 nM, respectively. For the same molecule, in the test with human CD33 [4], the “T cell MFI” value came out at 242. The “Monocyte MFI” value in the test with human CD33 [5] is 122. For the same molecule, the “Macrophage MFI” value in the test with human CD33 [6] came to 797. Also, the “DC MFI” value in the test with human CD33 [7] was determined as 1310. Further, the results for the “Percent RBC Binding to CD33” value in [9] and in test [10] were 13.3% and 9.73%, respectively.

B4: C-65 (antibody, V domains shown)
VH: QVQLVQSGAEVKKPGASVKVSCKASGYTFTSYYMHWVRQAPGQGLEWMGVINPSGGSTSYAQKFQGRVTMTRDTSTSTVYMELSSLRSEDTAVYYCARESQYYDVHGMDVWGQGTTVTVSS
VL: DIQMTQSPSSLSASVGDRVTITCRASQSISSYLNWYQQKPGKAPKLLIYAASSLQSGVPSRFSGSGSGTDFTLTISSLQPEDFATYYCQQQYTLPPTFGGGTKVEIK
notes: human IgG1
For B4, in the test with human CD33 [1], the “Percent CD33 Surface Expression, DC % CD33” value amounted to 26.9%; the “Percent CD33 Surface Expression, Macrophage % CD33” value was found to be 44.5%; the “Percent CD33 Surface Expression, Monocyte % CD33” value came to 31.2%. Also, the binding result in [2] is “no binding (tested: 100 nM)”. Also, in test [3], the Kd came to 1.62 nM. In addition, in the test with human CD33 [4], the “T cell MFI” value came to 216. Further, the “Monocyte MFI” value in the test with human CD33 [5] amounted to 161. Besides, the “Macrophage MFI” value in the test with human CD33 [6] was 852. Besides, in the test with human CD33 [7], the “DC MFI” value came to 1330. The molecule also yielded a Kd in test [8] of 7.67 nM. The “Percent RBC Binding to CD33” value in [9] amounted to 11.5%. Also, the “Percent RBC Binding to CD33” value in [10] was 9.33%.
